Experimental data from article PMC6602965.

Experiments:
[1] = target: AhlB (Aeromonas hydrophila strain AL09-71); experiment: crystal structure
[2] = target: AhlB (Aeromonas hydrophila strain AL09-71)
[3] = target: AhlC (Aeromonas hydrophila strain AL09-71)
[4] = target: AhlC (Aeromonas hydrophila strain AL09-71); experiment: SEC; gel filtration of AhlC alone (Supplementary Fig. 2)
[5] = target: AhlC (Aeromonas hydrophila strain AL09-71); experiment: crystal structure; soluble AhlC, two crystal forms (P6(5)22, 2.35 A; P2(1), 2.6 A)
[6] = target: AhlC (Aeromonas hydrophila strain AL09-71); experiment: cross-linking; 1.4 mg/ml soluble AhlC with glutaraldehyde (15 min, room temperature), then EDC in 0.1 M MES pH 6 (30 min); SDS-PAGE

Substance | stoichiometry N [1] | haemolysis of horse erythrocytes by a 1:1 AhlB/AhlC mixture, 1 h, against lysis by osmotic shock with water [2] | haemolysis with glutaraldehyde-cross-linked AhlC (mixture of monomeric and dimeric AhlC), reduction of lysis [3] | stoichiometry N [4] | stoichiometry N [5] | stoichiometry N [6]
AhlB (natural protein) | 10 |  |  |  |  | 
AhlC (natural protein) |  | 50% | 50 % reduction | 4 | 4 | 2
